The data set deals with MS2 coat protein. Nature of the data set: apparent KD of MS2 coat protein; designed switch direction (-1 OFF switch, 1 ON switch): -1; higher = weaker reporter binding. A digest of the protocol: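 Designed RNA switches with common flanks were transcribed on Illumina chips by stalled E. coli RNA polymerase and titrated with SNAP-549-labelled MS2 coat protein, from 0.7 or 1.5 nM doubling to 3 µM, in Tris-HCl pH 7.5 buffer with KCl, MgCl2, BSA, DTT, tRNA and Tween-20. Steps lasted 0.8–1.5 h (lowest) to 10–20 min (highest). Titrations ran without input, with 200 uM small-molecule ligand, or with an oligonucleotide input. Normalised cluster fluorescence was curve-fitted, and apparent KD is the per-design median over clusters.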

Setting [1] is: input ligand: microRNA oligo, concentration not stated.
[2] abbreviates: Eterna round: R95, input ligand: microRNA oligo, concentration not stated.
Where [3] appears, read: Eterna round: R95, input ligand: FMN 200 uM.
[4] abbreviates: Eterna round: R95, input ligand: none.

As to “AUGUUGCGAGGAUAUAUAAGGGUAUAAUAAUAAGAUAUGGAACAUGAGGAUCACCCAUGUAGAAGGUGCAUAAC [JR_Ex2_Sub040] (Eterna round: R97, puzzle: Exclusion 2)”, the “apparent KD of MS2 coat protein” value is 840 nM (input ligand: FMN 200 uM) and 21.1 nM (input ligand: none).

Turning to “UUAAAUCAUGUAGGAUAUGCGUGGCGAAGCUAUGCAGAAGGACAUGAGGAUCACCCAUGUGCUUCCGUCUGCGUACAGACGGUA [JL ENG1 1.14] (Eterna round: R96, puzzle: Exclusion NG 1)”, the “apparent KD of MS2 coat protein” value by setting is: (input ligand: FMN 200 uM) 258 nM; under setting [1], 79.2 nM; (input ligand: none) 91.2 nM.

On to “UGUGUGUCAGGAUAUAGUUCGAGUUCGGAAAUGAGCUUGAGCUAGAAGGGACAUGAGGAUCACCCAUGUGCACG [-26.3, -25.3 kcal, A 27%, 1-(ca)1] (Eterna round: R97, puzzle: Exclusion 4)”, for which the “apparent KD of MS2 coat protein” value runs as follows: (input ligand: FMN 200 uM) 148 nM; (input ligand: none) 83.6 nM.

For “UGUUGUCGCGUAGGAUAUGGCCAACAGGCCCUAGGAUAUCGGAAACGAGAAGGAGCGCCAACAGGCGAGAAGGACGGGACAACU [pwkr exNG2 2xF7 2xFMN.20] (Eterna round: R96, puzzle: Exclusion NG 2)”, the “apparent KD of MS2 coat protein” value was determined as 33 nM (input ligand: FMN 200 uM), 52.7 nM under setting [1] and 10.7 nM (input ligand: none).

As for “UAUAUGUAAGGAUAUCUCGUCAUGGAGGAAACUCCAUGACGAGAGAAGGUACAUGAGGAUCACCCAUGUCUAUU [Mod of Fisker 24 - Jieux - Exclusion 4] (Eterna round: R97, puzzle: Exclusion 4)”, the “apparent KD of MS2 coat protein” value runs as follows: (input ligand: FMN 200 uM) 117 nM; (input ligand: none) 33.1 nM.

Consider “GCACUGCGAGGAUAUACAUGAGGAUCACCCAUGUGUCGGCAGACAUGUUAUUUCUAAUGUAGAAGGCGCGUAAA [JR_Ex3_Sub002] (Eterna round: R97, puzzle: Exclusion 3)”, for which the “apparent KD of MS2 coat protein” value runs as follows: (input ligand: FMN 200 uM) 340 nM; (input ligand: none) 68.8 nM.

Take “AUACACUUAGUGAGGAUAUCGUUUUCUUUACGGAUCGAGAAGGCACAUGAGGAUCACCCAUGUUUGACGUGAAU [JR_BMOE4_Sub095] (puzzle: Brourd's mod of Exclusion 4)”: under setting [2], the “apparent KD of MS2 coat protein” value is 20.5 nM.

Turning to “GCGGAUUAUGUAGGAUAUCGGUCAGUUUCUGAUCGAGAAGGACAUGAGGAUCACCCAUGUAAAUUGCCCGCUUUGUGGGUCCGC [JL ENG1 3.62] (Eterna round: R96, puzzle: Exclusion NG 1)”, the “apparent KD of MS2 coat protein” value is, setting by setting: (input ligand: FMN 200 uM) 41.7 nM; under setting [1], 15 nM; (input ligand: none) 15.7 nM.

Consider “GAAAACGAAGAGGAUAUAUGAUAUCAAAGCUUCAUAGAAGGCUUCACAUGAGGAUCACCCAUGUGAUCUUCAAA [jl-ex6-4.07 ViennaUCT mod] (Eterna round: R97, puzzle: Exclusion 6)”, for which the “apparent KD of MS2 coat protein” value came out at 262 nM (input ligand: FMN 200 uM) and 37.9 nM (input ligand: none).

For the sequence “UUUCUGUGAGGAUAUCAGUAGUAAAUAAAUAAAAUUACUACUGAGAAGGCACAUGAGGAUCACCCAUGUUCCUU [salish99_ex3_r3_093] (puzzle: Exclusion 4)”, the “apparent KD of MS2 coat protein” value under setting [2] was 13.1 nM.

Regarding “CGGUGUAACACAGGAUAUCAUCGCAACUGACGUUGAGAAGGGUGACAUGAGGAUCACCCAUGUGAUUUCUCAAUAUUAUACAUC [Prohibition 83 - Jieux - Exclusion NG 1] (Eterna round: R96, puzzle: Exclusion NG 1)”, the “apparent KD of MS2 coat protein” value was determined as 508 nM (input ligand: FMN 200 uM), 481 nM under setting [1] and 629 nM (input ligand: none).

In the case of “GAAAAGGUAGGAUAUACGAAAAAAGAGGGUAGAAAAAAAACACAUGAGGAUCACCCAUGUAGAAGGACCAAAAG [salish99_ex2_r3_025] (puzzle: Exclusion 2)”, the “apparent KD of MS2 coat protein” value worked out at 60.2 nM under setting [3], 32.1 nM under setting [2] and 24.9 nM under setting [4].

On to “GCAUCCAAAGUGAGGAUAUACCUCUGGAUACAUAGGUAGAAGGCACAUGAGGAUCACCCAUGUUCCUAGGAUGC [Fiskers BMX 4 - 32] (puzzle: Brourd's mod of Exclusion 4)”, for which the “apparent KD of MS2 coat protein” value under setting [2] was 25 nM.

In the case of “UUGUUAUAUGUAGGAUAUGCAUAUUAUUAUUAUGCAGAAGGACAUGAGGAUCACCCAUGUAUAUUGUUAUUAUAUAUUAUAUAU [Title] (Eterna round: R96, puzzle: Exclusion NG 1)”, the “apparent KD of MS2 coat protein” value under setting [1] came to 19 nM.

With “GAGUUAACAUGAGGAAUAUACAUGAGGAUCACCCAUGUUAACAAAAUUUUUGCUCGUCUUAUAACAACAAUUAACUC [Alarm 3 - Jieux - Sensor, turn-off variant 1] (Eterna round: R97, puzzle: Sensor, turn-off variant 1)”, the “apparent KD of MS2 coat protein” value came to 272 nM (input ligand: FMN 200 uM) and 151 nM (input ligand: none).

As for “GGAUAAAACUGAGGAUAUGAGGAGAGAGAGAGAUCAGAAGGCAGACAUGAGGAUCACCCAUGUGAGUUCUCGAUAAGAAACACG [Prohibition 56 - Jieux - Exclusion NG 1] (Eterna round: R96, puzzle: Exclusion NG 1)”, the “apparent KD of MS2 coat protein” value came out at 58.9 nM (input ligand: FMN 200 uM), 30.7 nM under setting [1] and 38.3 nM (input ligand: none).

For “GCCUAUGUGGAGGAUAUCGACUUCGAAAGAAGUCGAGAAGGCCACACAUGAGGAUCACCCAUGUGGUGCCAGGC [Omei Ex6 H13] (Eterna round: R97, puzzle: Exclusion 6)”, the “apparent KD of MS2 coat protein” value turned out to be 336 nM (input ligand: FMN 200 uM) and 293 nM (input ligand: none).

Consider “UCGGCGCGAGGAUAUACGUUUGCUUUUUAGGAUCGUUGCGUACAUGAGGAUCACCCAUGUAGAAGGCGCGCCGC [Apr-15 SS2-27] (puzzle: Exclusion 2)”, for which the “apparent KD of MS2 coat protein” value under setting [2] was determined as 12.4 nM.

Consider “GUCAGCUCGUCAGGAUAUACAUGAGGAUCACCCAUGUGAUCAAUAGCAGCUUCGGCUGCAUUAAUGUAGAAGGGACGAGCUGAC [ENG2/5-B1] (Eterna round: R96, puzzle: Exclusion NG 2)”, for which the “apparent KD of MS2 coat protein” value was 34.7 nM (input ligand: FMN 200 uM), 33 nM under setting [1] and 368 nM (input ligand: none).

Regarding “GCUAGGAGUGUGAGGAUAUGCAGUUCCUUGGAACUGCAGAAGGCACAUGAGGAUCACCCAUGUGAAGACCUAGC [Mat - Exclusion 4 - JL Mod - D4] (Eterna round: R97, puzzle: Brourd's mod of Exclusion 4)”, the “apparent KD of MS2 coat protein” value runs as follows: (input ligand: FMN 200 uM) 212 nM; (input ligand: none) 26.6 nM.

Regarding “ACAAGCUUUUUGUUCGUCUUAUAAUAAUAAAUAAAGAUAACAUGAGGAUCACCCAUGUAACAAAGACGGCCUCAUGU [Sesor Array 19 - Jieux - Sensor v3, turn-off variant 2] (puzzle: Sensor v3, turn-off variant 2)”, the “apparent KD of MS2 coat protein” value by setting is: under setting [3], 166 nM; under setting [2], 11.7 nM; under setting [4], 112 nM.

For “GUGAAUGCAAGCUUUAAAUACAUGAGGAUCACCCAUGUAAACGCUAACCGCGAUAAUUACUGGGUACCUCCCGUCUU [Eternabot (L2) Solution 44] (Eterna round: R97, puzzle: Sensor, turn-off variant 1)”, the “apparent KD of MS2 coat protein” value (input ligand: FMN 200 uM) was 8.7 nM and the “apparent KD of MS2 coat protein” value (input ligand: none) turned out to be 24.9 nM.

Source of the values: the supplement of paper PMC9170038.
